According to article doi:10.1101/2021.04.22.440577 (bioRxiv, 2021):

B1: Structured central part of N-Tir (N-Tir 60-200, NS-Tir) (domain or fragment, enteropathogenic Escherichia coli (EPEC), UniProt B7UM99 60-200, looked up)
chain: SVDSRDIPGLPTNPSRLAAATSETCLLGGFEVLHDKGPLDILNTQIGPSAFRVEVQADGTHAAIGEKNGLEVSVTLSPQEWSSLQSIDTEGKNRFVFTGGRGGSGHPMVTVASDIAEARTKILAKLDPDNHGGRQPKDVDT
B2: N-terminal cytosolic region of EPEC Tir (N-Tir, residues 1-233) (domain or fragment, enteropathogenic Escherichia coli (EPEC), UniProt B7UM99 1-233, looked up)
chain: MPIGNLGNNVNGNHLIPPAPPLPSQTDGAARGGTGHLISSTGALGSRSLFSPLRNSMADSVDSRDIPGLPTNPSRLAAATSETCLLGGFEVLHDKGPLDILNTQIGPSAFRVEVQADGTHAAIGEKNGLEVSVTLSPQEWSSLQSIDTEGKNRFVFTGGRGGSGHPMVTVASDIAEARTKILAKLDPDNHGGRQPKDVDTRSVGVGSASGIDDGVVSETHTSTTNSSVRSDPK

What was measured:
[1] = biological target: 4-fold tyrosine-phosphorylated C-Tir (pC-Tir), EPEC Tir residues 388-550 phosphorylated by Fyn (enteropathogenic Escherichia coli (EPEC)) (UniProt B7UM99); experiment: NMR titration
[2] = biological target: the molecule itself; experiment: SEC + other: SAXS

4-fold tyrosine-phosphorylated C-Tir (pC-Tir), EPEC Tir residues 388-550 phosphorylated by Fyn (enteropathogenic Escherichia coli (EPEC)), sequence (B7UM99 388-550): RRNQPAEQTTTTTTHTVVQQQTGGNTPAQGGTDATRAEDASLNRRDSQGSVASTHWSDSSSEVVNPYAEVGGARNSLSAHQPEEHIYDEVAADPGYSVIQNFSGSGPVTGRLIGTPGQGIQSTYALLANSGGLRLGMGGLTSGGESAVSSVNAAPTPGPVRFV

Molecule	apparent local KD of the remaining pY sites (pY474, pY483, pY511) [1] [μM]	fold enhancement of binding at the Y511 ITIM against unphosphorylated C-Tir [1] [fold]	stoichiometry N [2]
C-terminal SH2 domain (C-SH2) of host tyrosine phosphatase SHP-1 (domain or fragment)	3 to 9	10	–
B1	–	–	2
B2	–	–	2
